# Laboratory results: patent US20250025544A1
# Experiments:
# [1] = biological target: … (HCMV pp65, epitope 1) presented by HLA-A*0201 (human; HCMV); assay: cell-based or functional assay
# [2] = biological target: … (EBV LMP2A, epitope 2) presented by HLA-A*0201 (human; EBV); assay: cell-based or functional assay
# [3] = scale: luciferase induction relative to uninfected controls
substance,measurement,setting,value
"TCR recognizing … presented by A*0201 (PDB #5D2N), expressed on Jurkat-Lucia NFAT reporter T cells","in vitro T cell activation assay (luciferase), targeting short cassette A (luciferase induction)",[1],32.5
same,"in vitro T cell activation assay (luciferase), targeting short cassette B (luciferase induction)",[1],31.8
same,"in vitro T cell activation assay (luciferase), targeting short cassette C (luciferase induction)",[1],29.1
same,"in vitro T cell activation assay (luciferase), targeting short cassette D (luciferase induction)",[1],29.1
same,"in vitro T cell activation assay (luciferase), targeting short cassette E (luciferase induction)",[1],28.4
same,"in vitro T cell activation assay (luciferase), targeting short cassette F (luciferase induction)",[1],20.4
same,"in vitro T cell activation assay (luciferase), targeting short cassette G (luciferase induction)",[1],35
same,"in vitro T cell activation assay (luciferase), targeting short cassette H (luciferase induction)",[1],30.3
same,"in vitro T cell activation assay (luciferase), targeting short cassette I (luciferase induction)",[1],22.5
same,"in vitro T cell activation assay (luciferase), targeting short cassette J (luciferase induction)",[1],38.1
same,"induction of luciferase, short cassette AAY (luciferase induction)",[1],24.5
same,"luciferase induction, short cassette 9AA",[1]; [3],33.6
same,"luciferase induction, short cassette 17AA",[1]; [3],42.8
same,"luciferase induction, short cassette 25AA",[1]; [3],42.3
same,"luciferase induction, short cassette AAY",[1]; [3],24.5
same,"luciferase induction, short cassette DPP",[1]; [3],0.9
same,"luciferase induction, short cassette RR",[1]; [3],21.7
"TCR recognizing … presented by A*0201 (PDB #3REV), expressed on Jurkat-Lucia NFAT reporter T cells","in vitro T cell activation assay (luciferase), targeting short cassette A (luciferase induction)",[2],6.1
same,"in vitro T cell activation assay (luciferase), targeting short cassette B (luciferase induction)",[2],6.3
same,"in vitro T cell activation assay (luciferase), targeting short cassette C (luciferase induction)",[2],7.6
same,"in vitro T cell activation assay (luciferase), targeting short cassette D (luciferase induction)",[2],7
same,"in vitro T cell activation assay (luciferase), targeting short cassette E (luciferase induction)",[2],5.9
same,"in vitro T cell activation assay (luciferase), targeting short cassette F (luciferase induction)",[2],3.7
same,"in vitro T cell activation assay (luciferase), targeting short cassette G (luciferase induction)",[2],7.6
same,"in vitro T cell activation assay (luciferase), targeting short cassette H (luciferase induction)",[2],5.4
same,"in vitro T cell activation assay (luciferase), targeting short cassette I (luciferase induction)",[2],6.2
same,"in vitro T cell activation assay (luciferase), targeting short cassette J (luciferase induction)",[2],6.4
same,"induction of luciferase, short cassette AAY (luciferase induction)",[2],11.3
same,"luciferase induction, short cassette 9AA",[2],12
same,"luciferase induction, short cassette 17AA",[2],10.3
same,"luciferase induction, short cassette 25AA",[2],14.6
same,"luciferase induction, short cassette AAY",[2],11.3
same,"luciferase induction, short cassette DPP",[2],1.1
same,"luciferase induction, short cassette RR",[2],8.5
